Experimental data published in doi:10.1101/2021.03.11.435010 (bioRxiv, 2021).

T1: MED7 (human, UniProt O43513 1-233)
T1 sequence: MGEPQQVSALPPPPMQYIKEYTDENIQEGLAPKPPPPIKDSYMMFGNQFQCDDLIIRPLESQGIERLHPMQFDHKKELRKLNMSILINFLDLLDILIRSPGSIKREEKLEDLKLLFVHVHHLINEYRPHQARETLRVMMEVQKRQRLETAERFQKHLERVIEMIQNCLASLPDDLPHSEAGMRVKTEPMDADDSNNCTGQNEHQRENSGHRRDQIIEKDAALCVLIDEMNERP

T2: MED4 (human, UniProt Q9NPJ6 1-270)
T2 sequence: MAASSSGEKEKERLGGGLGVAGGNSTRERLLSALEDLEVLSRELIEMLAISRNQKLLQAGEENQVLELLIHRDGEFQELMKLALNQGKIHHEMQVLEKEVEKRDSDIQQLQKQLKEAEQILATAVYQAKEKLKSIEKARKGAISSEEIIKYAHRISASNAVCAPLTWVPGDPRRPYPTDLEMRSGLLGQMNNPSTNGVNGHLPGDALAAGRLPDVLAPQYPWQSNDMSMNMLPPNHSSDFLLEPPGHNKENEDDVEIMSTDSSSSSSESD

T3: MED8 (human, UniProt Q96G25 1-268)
T3 sequence: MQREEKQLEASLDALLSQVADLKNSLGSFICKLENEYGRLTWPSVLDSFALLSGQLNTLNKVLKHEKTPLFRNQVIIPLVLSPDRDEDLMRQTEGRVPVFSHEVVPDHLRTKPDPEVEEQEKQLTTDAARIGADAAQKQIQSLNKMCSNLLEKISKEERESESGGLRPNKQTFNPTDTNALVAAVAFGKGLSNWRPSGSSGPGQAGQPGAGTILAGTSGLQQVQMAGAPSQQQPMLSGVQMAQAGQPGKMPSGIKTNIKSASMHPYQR

T4: MED30 (human, UniProt Q96HR3 1-178)
T4 sequence: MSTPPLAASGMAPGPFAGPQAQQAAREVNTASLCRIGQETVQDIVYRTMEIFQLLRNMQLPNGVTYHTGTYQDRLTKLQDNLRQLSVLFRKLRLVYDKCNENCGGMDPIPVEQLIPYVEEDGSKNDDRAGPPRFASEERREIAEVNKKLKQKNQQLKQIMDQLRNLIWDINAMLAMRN

T5: MED17 (human, UniProt Q9NVC6 1-651)
T5 sequence: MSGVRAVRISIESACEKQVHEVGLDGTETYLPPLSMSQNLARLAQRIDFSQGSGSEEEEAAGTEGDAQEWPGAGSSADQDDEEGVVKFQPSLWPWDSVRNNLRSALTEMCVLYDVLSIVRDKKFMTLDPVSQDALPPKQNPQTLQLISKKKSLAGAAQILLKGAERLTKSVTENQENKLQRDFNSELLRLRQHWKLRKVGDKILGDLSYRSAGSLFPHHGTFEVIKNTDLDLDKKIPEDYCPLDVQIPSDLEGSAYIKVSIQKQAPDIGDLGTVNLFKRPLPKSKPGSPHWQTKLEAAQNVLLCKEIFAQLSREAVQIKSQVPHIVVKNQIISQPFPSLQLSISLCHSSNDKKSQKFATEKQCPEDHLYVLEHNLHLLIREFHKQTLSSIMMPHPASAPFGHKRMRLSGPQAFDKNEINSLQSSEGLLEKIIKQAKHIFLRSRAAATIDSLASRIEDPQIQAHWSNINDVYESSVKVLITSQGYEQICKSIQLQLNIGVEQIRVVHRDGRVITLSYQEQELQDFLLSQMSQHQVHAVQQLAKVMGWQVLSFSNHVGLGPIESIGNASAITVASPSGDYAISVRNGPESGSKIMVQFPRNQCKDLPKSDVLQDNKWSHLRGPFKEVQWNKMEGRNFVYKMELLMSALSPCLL

T6: TFIIB (human, UniProt Q00403 1-316)
T6 sequence: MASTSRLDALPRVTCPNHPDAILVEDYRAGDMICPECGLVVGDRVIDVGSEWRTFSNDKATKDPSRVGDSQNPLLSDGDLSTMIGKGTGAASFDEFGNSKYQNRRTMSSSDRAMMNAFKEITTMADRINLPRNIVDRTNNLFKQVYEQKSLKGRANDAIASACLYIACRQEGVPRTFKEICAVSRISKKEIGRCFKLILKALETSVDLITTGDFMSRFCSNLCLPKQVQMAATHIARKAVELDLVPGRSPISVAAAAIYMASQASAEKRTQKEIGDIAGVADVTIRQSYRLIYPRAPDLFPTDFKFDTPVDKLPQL

B1: MED31 (natural protein)
chain: MAAAVAMETDDAGNRLRFQLELEFVQCLANPNYLNFLAQRGYFKDKAFVNYLKYLLYWKDPEYAKYLKYPQCLHMLELLQYEHFRKELVNAQCAKFIDEQQILHWQHYSRKRMRLQQALAEQQQQNNTSGK
B2: MED20 (natural protein)
chain: MGVTCVSQMPVAEGKSVQQTVELLTRKLEMLGAEKQGTFCVDCETYHTAASTLGSQGQTGKLMYVMHNSEYPLSCFALFENGPCLIADTNFDVLMVKLKGFFQSAKASKIETRGTRYQYCDFLVKVGTVTMGPSARGISVEVEYGPCVVASDCWSLLLEFLQSFLGSHTPGAPAVFGNRHDAVYGPADTMVQYMELFNKIRKQQQVPVAGIR
B3: MED28 (natural protein)
chain: MAAPLGGMFSGQPPGPPQAPPGLPGQASLLQAAPGAPRPSSSTLVDELESSFEACFASLVSQDYVNGTDQEEIRTGVDQCIQKFLDIARQTECFFLQKRLQLSVQKPEQVIKEDVSELRNELQRKDALVQKHLTKLRHWQQVLEDINVQHKKPADIPQGSLAYLEQASANIPAPLKPT
B4: MED6 (natural protein)
chain: MAAVDIRDNLLGISWVDSSWIPILNSGSVLDYFSERSNPFYDRTCNNEVVKMQRLTLEHLNQMVGIEYILLHAQEPILFIIRKQQRQSPAQVIPLADYYIIAGVIYQAPDLGSVINSRVLTAVHGIQSAFDEAMSYCRYHPSKGYWWHFKDHEEQDKVRPKAKRKEEPSSIFQRQRVDALLLDLRQKFPPKFVQLKPGEKPVPVDQTKKEAEPIPETVKPEEKETTKNVQQTVSAKGPPEKRMRLQ
B5: MED27 (natural protein)
chain: MADVINVSVNLEAFSQAISAIQALRSSVSRVFDCLKDGMRNKETLEGREKAFIAHFQDNLHSVNRDLNELERLSNLVGKPSENHPLHNSGLLSLDPVQDKTPLYSQLLQAYKWSNKLQYHAGLASGLLNQQSLKRSANQMGVSAKRRPKAQPTTLVLPPQYVDDVISRIDRMFPEMSIHLSRPNGTSAMLLVTLGKVLKVIVVMRSLFIDRTIVKGYNENVYTEDGKLDIWSKSNYQVFQKVTDHATTALLHYQLPQMPDVVVRSFMTWLRSYIKLFQAPCQRCGKFLQDGLPPTWRDFRTLEAFHDTCRQ
B6: MED18 (natural protein)
chain: MEAPPVTMMPVTGGTINMMEYLLQGSVLDHSLESLIHRLRGLCDNMEPETFLDHEMVFLLKGQQASPFVLRARRSMDRAGAPWHLRYLGQPEMGDKNRHALVRNCVDIATSENLTDFLMEMGFRMDHEFVAKGHLFRKGIMKIMVYKIFRILVPGNTDSTEALSLSYLVELSVVAPAGQDMVSDDMKNFAEQLKPLVHLEKIDPKRLM
B7: MED11 (natural protein)
chain: MATYSLANERLRALEDIEREIGAILQNAGTVILELSKEKTNERLLDRQAAAFTASVQHVEAELSAQIRYLTQVATGQPHEGSSYSSRKDCQMALKRVDYARLKLSDVARTCEQMLEN

Key:
Experiment in all cases: cryo-EM structure
[1] = molecular target: T1, MED7
[2] = molecular target: T2, MED4
[3] = molecular target: MED14 (human, UniProt O60244 1-1454)
Chain of MED14 (O60244 whole entry): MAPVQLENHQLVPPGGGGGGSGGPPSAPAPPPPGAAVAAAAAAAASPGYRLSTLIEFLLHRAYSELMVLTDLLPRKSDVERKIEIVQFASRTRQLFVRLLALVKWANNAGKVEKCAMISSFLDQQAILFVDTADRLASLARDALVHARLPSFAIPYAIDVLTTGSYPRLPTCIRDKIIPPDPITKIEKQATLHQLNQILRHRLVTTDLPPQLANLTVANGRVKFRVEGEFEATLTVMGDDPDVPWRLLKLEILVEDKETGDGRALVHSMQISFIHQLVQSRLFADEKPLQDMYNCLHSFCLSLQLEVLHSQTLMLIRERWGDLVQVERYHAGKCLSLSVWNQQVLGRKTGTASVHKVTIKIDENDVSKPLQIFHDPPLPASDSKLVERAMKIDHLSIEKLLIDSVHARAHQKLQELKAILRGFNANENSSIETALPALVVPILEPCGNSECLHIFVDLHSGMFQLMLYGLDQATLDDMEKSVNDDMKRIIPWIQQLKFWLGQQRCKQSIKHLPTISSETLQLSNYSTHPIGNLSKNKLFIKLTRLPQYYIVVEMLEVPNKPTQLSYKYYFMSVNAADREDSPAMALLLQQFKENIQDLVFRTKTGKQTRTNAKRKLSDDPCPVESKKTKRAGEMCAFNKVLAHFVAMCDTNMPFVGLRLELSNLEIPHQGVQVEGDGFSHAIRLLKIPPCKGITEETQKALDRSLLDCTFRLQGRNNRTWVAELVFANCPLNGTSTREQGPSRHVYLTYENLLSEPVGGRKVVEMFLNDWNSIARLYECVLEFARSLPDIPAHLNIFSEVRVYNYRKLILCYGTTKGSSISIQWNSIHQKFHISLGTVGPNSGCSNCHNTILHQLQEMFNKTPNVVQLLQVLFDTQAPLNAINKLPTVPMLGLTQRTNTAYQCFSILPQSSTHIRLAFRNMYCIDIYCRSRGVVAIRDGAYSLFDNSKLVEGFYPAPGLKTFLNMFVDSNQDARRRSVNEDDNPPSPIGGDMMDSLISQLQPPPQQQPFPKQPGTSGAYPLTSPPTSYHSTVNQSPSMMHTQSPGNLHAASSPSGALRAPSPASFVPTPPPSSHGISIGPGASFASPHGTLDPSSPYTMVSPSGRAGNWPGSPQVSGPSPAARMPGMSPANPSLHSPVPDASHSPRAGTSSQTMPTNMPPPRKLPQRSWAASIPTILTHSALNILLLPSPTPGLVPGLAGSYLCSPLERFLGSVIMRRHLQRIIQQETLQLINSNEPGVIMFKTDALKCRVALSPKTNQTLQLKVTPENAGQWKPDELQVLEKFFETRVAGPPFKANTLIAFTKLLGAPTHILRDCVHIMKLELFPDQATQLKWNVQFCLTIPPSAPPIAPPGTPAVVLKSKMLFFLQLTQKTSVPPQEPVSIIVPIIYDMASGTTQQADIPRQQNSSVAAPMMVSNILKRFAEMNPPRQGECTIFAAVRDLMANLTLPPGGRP

[4] = molecular target: T3, MED8
[5] = molecular target: B5
[6] = molecular target: T4, MED30
[7] = molecular target: T5, MED17
[8] = molecular target: T6, TFIIB
[9] = molecular target: B2
[10] = molecular target: B3

B1: binds [1]; binds [2]; binds [3].

B2: binds [4]; binds [5].

B3: binds [6].

B4: binds [4].

B5: binds [7]; binds [3].

B6: binds [4]; binds [8]; binds [9].

B7: binds [6]; binds [10].
